In the series the target is carcinoembryonic antigen (CEA) (human, UniProt P06731 35-685). In words: electrochemical aptasensor (interdigitated electrode, sandwich); immobilized aptamer; 0.5-1000 ng/mL CEA in PBS, or spiked in 1:100 human serum; LOD 0.5 ng/mL (not a Kd); PBS or 1:100 diluted human serum; graphene-modified IDE blocked with 1% BSA; pH, salt and temperature not stated. The conditions noted are these: protein: commercial.

Data on one molecule can be found in publication PMC9113893, “Carbon Material Hybrid Construction on an Aptasensor for Monitoring Surgical Tumors”.

carcinoembryonic antigen (CEA), sequence (P06731 35-685): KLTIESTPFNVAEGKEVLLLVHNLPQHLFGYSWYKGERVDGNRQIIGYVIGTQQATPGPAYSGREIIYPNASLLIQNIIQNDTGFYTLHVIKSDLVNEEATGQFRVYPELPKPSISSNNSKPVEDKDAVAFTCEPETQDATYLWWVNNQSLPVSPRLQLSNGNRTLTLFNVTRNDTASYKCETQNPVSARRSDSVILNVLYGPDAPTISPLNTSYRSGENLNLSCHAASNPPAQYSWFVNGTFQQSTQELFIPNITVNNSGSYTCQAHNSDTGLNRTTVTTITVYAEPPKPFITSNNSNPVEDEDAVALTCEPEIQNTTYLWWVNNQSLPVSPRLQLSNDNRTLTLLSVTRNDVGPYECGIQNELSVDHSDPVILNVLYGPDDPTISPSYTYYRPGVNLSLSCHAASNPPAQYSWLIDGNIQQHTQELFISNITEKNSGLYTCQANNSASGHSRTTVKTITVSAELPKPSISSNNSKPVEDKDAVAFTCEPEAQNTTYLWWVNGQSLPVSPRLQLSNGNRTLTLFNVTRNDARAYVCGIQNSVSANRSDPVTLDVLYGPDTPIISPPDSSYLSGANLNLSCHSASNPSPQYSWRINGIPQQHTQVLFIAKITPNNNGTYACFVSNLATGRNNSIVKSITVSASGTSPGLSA

As for TATCCAGCTTATTCAATT (ssDNA, 3'-NH2) [anti-CEA capture aptamer], the binding result is reported as “binds”.
